We go through one molecule from article PMC7542365 (mBio, 2020).

The target of the experiment is T1, A/Serbia/NS-601/2014 H1N1 NA, soluble tetramer with His tag attached (Influenza A virus A/Serbia/NS-601/2014 …, strain).
T1 chain: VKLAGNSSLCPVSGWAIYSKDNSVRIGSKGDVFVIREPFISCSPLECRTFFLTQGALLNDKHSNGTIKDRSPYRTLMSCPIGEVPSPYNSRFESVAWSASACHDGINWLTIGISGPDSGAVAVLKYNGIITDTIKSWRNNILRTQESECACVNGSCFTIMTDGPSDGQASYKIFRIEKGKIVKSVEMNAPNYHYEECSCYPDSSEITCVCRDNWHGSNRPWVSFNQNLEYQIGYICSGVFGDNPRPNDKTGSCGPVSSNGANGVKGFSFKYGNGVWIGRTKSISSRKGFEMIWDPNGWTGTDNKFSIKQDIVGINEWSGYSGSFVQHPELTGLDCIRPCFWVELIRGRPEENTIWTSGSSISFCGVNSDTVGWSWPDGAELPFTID
In words: SPR. The conditions noted are these: both partners purified.

B1: Z2B3-D102R Fab (Fab, V domains shown)
VH: EVQLVQSGAEVKKPGSSVKVSCKASGGPFSSYGFSWVRQAPGQGLEWMGGIIPVYGTTNYAQKFQGRVTITADESTSTAYMELSSLKSEDTAVYYCARDLQRTPMVDRIIGSYYYYNGLDVWGQGTTVTVSS
VL: QSVLTQPASVSGSPGQSITISCTGASSDVGDYNYVSWYQQHPGKAPKLMIYDVSNRPSGVSNRFSGSKSGDTASLTISGLQAEDEADYYCSSYTRSSSVVFGGGTKLTVL
The molecule B1 displayed a Kd of 0.401 µM.
